Results reported in paper PMC3916286, “NSUN4 Is a Dual Function Mitochondrial Protein Required for Both Methylation of 12S rRNA and Coordination of Mitoribosomal Assembly”.

Target: NSUN4 (Homo sapiens, UniProt Q96CB9 26-384)
Assay: EMSA; NSUN4 without MTERF4; protein 0-2.56 uM; EMSA with 40 ng RNA and 0-2.56 uM protein, essentially as in cited ref 15; buffer, salt, pH and temperature not given
Conditions: protein: recombinant; single strand folded, closed by added GGG/CCC

Chain of NSUN4 (Q96CB9 26-384): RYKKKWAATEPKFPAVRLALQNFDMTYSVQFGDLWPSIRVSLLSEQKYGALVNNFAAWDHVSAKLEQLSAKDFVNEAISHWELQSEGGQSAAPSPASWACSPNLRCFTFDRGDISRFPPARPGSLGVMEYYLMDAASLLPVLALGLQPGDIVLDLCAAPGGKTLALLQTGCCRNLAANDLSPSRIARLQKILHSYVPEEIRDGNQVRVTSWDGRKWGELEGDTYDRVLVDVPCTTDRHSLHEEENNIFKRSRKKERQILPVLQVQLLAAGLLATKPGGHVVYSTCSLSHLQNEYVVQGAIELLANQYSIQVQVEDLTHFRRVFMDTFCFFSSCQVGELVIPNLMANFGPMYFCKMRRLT

B1: ds12S:878-949 (structured_RNA)
RNA: GGGGUUGAACAGGGCCCUGAAGCGCGUACACACCGCCCGUCACCCUCCUCAAGUAUACUUCAAAGGACAUUUAACCCC
- binding result: binds
